thrombin
cleavage by 1.4 nM thrombin (HPLC) (Compound 4): Compound 1 was a better substrate for thrombin than Compounds 4 and 5
clotting activity by ROTEM in human hemophilia A blood (FVII-184): Inactivating the thrombin cleavage site of FVII133 considerably reduced the activity; as the activity of FVII-184, which only became detectable at 50 nM, was much lower than that of FVIIa
cleavage by 1.4 nM thrombin (HPLC) (Compound 5): Compound 1 was a better substrate for thrombin than Compounds 4 and 5
amidolytic activity (chromozyme t-PA substrate) before and after thrombin activation (FVII-133): FVII-212 displayed no activity prior to thrombin activation. Following thrombin activation, the amidolytic activity associated with FVII-212 was greater than that observed for equal molar levels of rFVIIa
cleavage rate with 14 nM thrombin (HPLC, decrease of peptide peak area) (Compound 1): at least 10-fold increase in cleavage rate compared to that of Compound 2
fraction cleaved and released with 1.4 nM thrombin (HPLC) (Compound 1): 30% of Compound 1 was quickly cleaved and released
release of peptide IVGGQE with 1.4 nM thrombin (HPLC) (Compound 6): thrombin-mediated release of peptide IVGGQE from Compound 6 without PABC linker was not observed

Reference: patent US20150353911
